Experimental data reported in patent publication US20070099822A1, “Regulation of tissue mineralization and phosphate metabolism by asarm peptides” (priority 2003, published 2007).

System: Male ICR-Swiss mice
Assay: Intraperitoneal administration of Hu-MEPE and PTH (1-34) into mice, serum and urine assays
Format: in vivo
Conditions: for serum phosphate: vehicle 11.94; for serum 1,25-dihydroxy vitamin-D3: vehicle 25.2; for serum alkaline phosphatase: vehicle 65.06
Method: Intraperitoneal administration of Hu-MEPE and PTH (1-34) into mice. Male ICR-Swiss mice were used as recipients for intraperitoneal administration (100 μl) of 0.1% phosphate-buffered saline/0.1% bovine serum albumin (vehicle) and experimental conditions (Hu-MEPE and PTH 1-34) dissolved in 100 μL of vehicle. Two separate (repeat) experiments were conducted consisting of four groups with 6 and 7 animals per group. The control group was administered with 100 μL of vehicle (Group-1). Group-2 consisted of animals administered with 0.8 μg/injection of parathyroid hormone (PTH 1-34). Group 3 were injected with 0.4 μg/injection of Hu-MEPE and Group-4 with 4 μg/injection of Hu-MEPE. On day one, three bolus injections were given at 0, 3 h, and 6 h. Serum samples were then collected via retro-orbital bleed one hour after the 6 h bolus administration. The next day or 30 hours after the first bolus a fourth bolus (same amount) was given and after 1 h the animals were sacrificed and serum prepared after cardiac exsanguination. The total amounts of PTH and MEPE administered over the 30 h were 80 μg/kg/30 h PTH 1-34, 40 μg/kg/30 h Hu-MEPE (MEPE-40) and 400 μg/kg/30 h Hu-MEPE (MEPE-400). Each group was placed in a separate metabolic cage and urine was collected for the 6-hour period. After the first 6-hour urine collection mice were replaced in thoroughly cleaned metabolic cages for the remaining 24 hours. The second 24-hour urine was collected immediately after the animals were sacrificed. The urine volumes for the second and first collections were measured. Collecting urine samples from large numbers of small mice over the time frame of the experiment was not feasible. Therefore, urine samples from each group (n=7) were pooled and volumes measured via a specially designed collecting duct in the metabolic cage. To ensure reproducibility the experiment was repeated twice (the same changes occurred). To calculate the fractional excretion of phosphate (FEP) the following equation was used: 100−(100×(1−(A/B))) where A=(urine phosphorus in mg/dL)×(serum creatinine in mg/dL) and B=(urine creatinine in mg/dL)×(serum phosphorus in mg/dL). To calculate renal phosphorus clearance (RPC) in mL/minute following computation was used: (urine phosphorus in mg/dL)×(urinary volume in mL)/((serum phosphorus in mg/dL)×(time of collection in minutes)). The phosphate excretion index (PEI) was calculated using the same method described by Shimada et al. (Cloning and characterization of FGF23 as a causative factor of tumor-induced osteomalacia, Proc Natl Acad Sci USA 98:6500-6505, 2001) using the following formula: ((urinary concentration of phosphorus in mg/dL)/(serum concentration of phosphorus in mg/dL))/(total urinary creatinine in mg).
Serum and urine assays. Serum and urine assays for phosphate, calcium, chloride, potassium, creatinine, glucose and alkaline phosphatase were accomplished using 96 well format KC4-spectrophotometer multiplate kinetic/end-point analyses using routine methods and diagnostic-kits Sigma-Diagnostics). Serum 1,25-dihydroxy vitamin-D3 levels were estimated using the method of Reinhardt, et al. (A microassay for 1,25-dihydroxyvitamin D not requiring high performance liquid chromatography: application to clinical studies, J Clin Endocrinol Metab 58:91-98, 1984). Analysis of data for fractional excretion of phosphate (FEP) was carried out following the same method described previously by Shimada et al. (Mutant FGF-23 responsible for autosomal dominant hypophosphatemic rickets is resistant to proteolytic cleavage and causes hypophosphatemia in vivo, Endocrinology 143:3179-82, 2002) for FGF23 bolus administration studies and by Nesbitt et al. (Crosstransplantation of kidneys in normal and Hyp mice: Evidence that the Hyp mouse phenotype is unrelated to an intrinsic renal defect, J Clin Invest 89:1453-59, 1992) for renal cross-transplantation experiments in Hyp mice.
Statistical methods. […]

B1: Hu-MEPE: purified insect expressed full-length recombinant human MEPE (Matrix Extracellular Phosphoglycoprotein) (protein)
chain: PTFQPQTEKTKQSCVEEQRQEEKNKDNIGFHHLGKRINQELSSKENIVQERKKDLSLSEASENKGSSKSQNYFTNRQRLNKEYSISNKENTHNGLRMSIYPKSTGNKGFEDGDDAISKLHDQEEYGAALIRNNMQHIMGPVTAIKLLGEENKENTPRNVLNIIPASMNYAKAHSKDKKKPQRDSQAQKSPVKSKSTHRIQHNIDYLKHLSKVKKIPSDFEGSGYTDLQERGDNDISPFSGDGQPFKDIPGKGEATGPDLEGKDIQTGFAGPSEAESTHLDTKKPGYNEIPEREENGGNTIGTRDETAKEADAVDVSLVEGSNDIMGSTNFKELPGREGNRVDAGSQNAHQGKVEFHYPPAPSKEKRKEGSSDAAESTNYNEIPKNGKGSTRKGVDHSNRNQATLNEKQRFPSKGKSQGLPIPSRGLDNEIKNEMDSFNGPSHENIITHGRKYHYVPHRQNNSTRNKGMPQGKGSWGRQPHSNRRFSSRRRDDSSESSDSGSSSESDGD
In the case of B1, the urine phosphate (7 h, MEPE-40 i.p., vehicle 31.8) is reported as 41.0 mg/dL, the “fractional excretion of phosphate (FEP)” value (7 h, MEPE-400, vehicle 7.8%) is reported as 14.43% and the urine phosphate (7 h, MEPE-400 i.p., vehicle 31.8) is reported as 56.1 mg/dL. For the same molecule, the serum phosphate (31 h, MEPE-40 (40 ug/kg/30 h) i.p., not statistically significant) was 10.6 mg/dL, the “serum 1,25-dihydroxy vitamin-D3” value (31 h, MEPE-40, pooled) was 31.5 pg/mL and the serum alkaline phosphatase (31 h, MEPE-40) was 45.63 U/L. The “serum 1,25-dihydroxy vitamin-D3” value (31 h, MEPE-400, pooled) was 45.05 pg/mL, the “fractional excretion of phosphate (FEP)” value (31 h, MEPE-400, vehicle 28.7%) was 65.0% and the serum alkaline phosphatase (31 h, MEPE-400) was 46.31 U/L. For the same molecule, the “urine phosphate vs vehicle” value (31 h, low-dose MEPE-40) was “not significantly different”, the serum phosphate (31 hours, MEPE-400 (400 ug/kg/30 h) i.p.) was 8.23 mg/dL and the urine phosphate (31 h second urine, MEPE400, vehicle 175.9) was 297.4 mg/dL. The “serum phosphate vs vehicle” value (after 7 hours, i.p., PTH and MEPE animals) was “no significant differences”, the “serum calcium vs vehicle” value (after 7 hours, PTH 80 ug/kg/30 h, low Hu-MEPE dose) was “not significantly different” and the FEP vs vehicle (low dose MEPE-40) was “not significantly different”.
